B1: Protein Dr1 (Homo sapiens), Q01658 (parent)
chain: MASSSGNDDDLTIPRAAINKMIKETLPNVRVANDARELVVNCCTEFIHLISSEANEICNKSEKKTISPEHVIQALESLGFGSYISEVKEVLQECKTVALKRRKASSRLENLGIPEEELLRQQQELFAKARQQQAELAQQEWLQMQQAAQQAQLAAASASASNQAGSSQDEEDDDDI
partner: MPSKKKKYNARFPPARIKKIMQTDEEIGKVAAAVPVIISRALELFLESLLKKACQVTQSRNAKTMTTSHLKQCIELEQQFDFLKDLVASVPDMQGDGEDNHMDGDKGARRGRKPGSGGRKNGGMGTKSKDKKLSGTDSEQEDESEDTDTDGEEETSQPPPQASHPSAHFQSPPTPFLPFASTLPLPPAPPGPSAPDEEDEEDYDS
B2: Coiled-coil domain-containing protein 33 (Homo sapiens), Q8N5R6-5 (parent)
chain: MGEPGPPSPPAPKAAPGLIDSFSEMNNYRRAMQKMAEDILSLRRQASILEGENRILRSRLAQQEEEEGQGKASEAQNTVSMKQKLLLSELDMKKLRDRVQHLQNELIRKNDREKELLLLYQAQQPQAALLKQYQGKLQKMKALEETVRHQEKVIEKMERVLEDRLQDRSKPPPLNRQQGKPYTGFPMLSASGLPLGSMGENLPVELYSVLLAENAKLRTELDKNRHQQAPIILQQQALPVDPGELGAGGDLTERLQETHGPGHSECTETLPAQDLLSGTSDKFNLLAKLEHAQSRILSLESQLEDSARRWGREKQDLATRLQEQEKGFRHPSNSIIIEQPVSDPPGVAPRGSGGGAGSHRTPKVTGP
B3: Cell division cycle 7-related protein kinase (Homo sapiens), O00311 (parent)
chain: MEASLGIQMDEPMAFSPQRDRFQAEGSLKKNEQNFKLAGVKKDIEKLYEAVPQLSNVFKIEDKIGEGTFSSVYLATAQLQVGPEEKIALKHLIPTSHPIRIAAELQCLTVAGGQDNVMGVKYCFRKNDHVVIAMPYLEHESFLDILNSLSFQEVREYMLNLFKALKRIHQFGIVHRDVKPSNFLYNRRLKKYALVDFGLAQGTHDTKIELLKFVQSEAQQERCSQNKSHIITGNKIPLSGPVPKELDQQSTTKASVKRPYTNAQIQIKQGKDGKEGSVGLSVQRSVFGERNFNIHSSISHESPAVKLMKQSKTVDVLSRKLATKKKAISTKVMNSAVMRKTASSCPASLTCDCYATDKVCSICLSRRQQVAPRAGTPGFRAPEVLTKCPNQTTAIDMWSAGVIFLSLLSGRYPFYKASDDLTALAQIMTIRGSRETIQAAKTFGKSILCSKEVPAQDLRKLCERLRGMDSSTPKLTSDIQGHASHQPAISEKTDHKASCLVQTPPGQYSGNSFKKGDSNSCEHCFDEYNTNLEGWNEVPDEAYDLLDKLLDLNPASRITAEEALLHPFFKDMSL
partner: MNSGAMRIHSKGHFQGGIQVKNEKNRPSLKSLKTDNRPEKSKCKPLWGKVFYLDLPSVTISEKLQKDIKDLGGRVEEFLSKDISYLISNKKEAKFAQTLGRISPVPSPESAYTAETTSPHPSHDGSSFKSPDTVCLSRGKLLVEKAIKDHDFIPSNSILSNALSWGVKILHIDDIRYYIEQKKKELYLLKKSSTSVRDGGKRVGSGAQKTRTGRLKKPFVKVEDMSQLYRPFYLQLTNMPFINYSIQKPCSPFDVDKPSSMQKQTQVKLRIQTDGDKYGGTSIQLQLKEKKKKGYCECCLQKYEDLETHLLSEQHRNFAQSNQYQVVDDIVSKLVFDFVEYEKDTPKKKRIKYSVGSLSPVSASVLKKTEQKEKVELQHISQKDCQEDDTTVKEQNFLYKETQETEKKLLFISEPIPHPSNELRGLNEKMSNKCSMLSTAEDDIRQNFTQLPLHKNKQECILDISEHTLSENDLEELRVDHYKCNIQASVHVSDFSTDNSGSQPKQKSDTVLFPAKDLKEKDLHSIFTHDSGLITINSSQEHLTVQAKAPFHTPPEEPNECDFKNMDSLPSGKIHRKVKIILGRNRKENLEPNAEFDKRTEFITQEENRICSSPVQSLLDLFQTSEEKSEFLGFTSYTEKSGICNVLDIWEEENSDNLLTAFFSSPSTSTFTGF

In one experiment the parent is B1. Particulars: with nc2a_human DRAP1, Q14919.
In the case of MASSSGNDDDLTIPRAAINKMIKETLPNVRVANDARELVVNCCTEFIHLISSEANEICNKSEKKTISPEHVIQALESLGFGSYISEVKEVLQECKTVALKRRKASSRLENLGIPEEELLRQQQELFAKARQQQAELAQQEWLQMQQAAQQAQLAAASASASNQAGSSQDEDDDDDI [E171D], the “effect of a mutation on the interaction” value is listed as “with no effect”.

The next experiment covers variants of B2. To be noted: with smad3_human SMAD3, P84022.
Chain of smad3_human SMAD3, P84022 (P84022 whole entry, looked up): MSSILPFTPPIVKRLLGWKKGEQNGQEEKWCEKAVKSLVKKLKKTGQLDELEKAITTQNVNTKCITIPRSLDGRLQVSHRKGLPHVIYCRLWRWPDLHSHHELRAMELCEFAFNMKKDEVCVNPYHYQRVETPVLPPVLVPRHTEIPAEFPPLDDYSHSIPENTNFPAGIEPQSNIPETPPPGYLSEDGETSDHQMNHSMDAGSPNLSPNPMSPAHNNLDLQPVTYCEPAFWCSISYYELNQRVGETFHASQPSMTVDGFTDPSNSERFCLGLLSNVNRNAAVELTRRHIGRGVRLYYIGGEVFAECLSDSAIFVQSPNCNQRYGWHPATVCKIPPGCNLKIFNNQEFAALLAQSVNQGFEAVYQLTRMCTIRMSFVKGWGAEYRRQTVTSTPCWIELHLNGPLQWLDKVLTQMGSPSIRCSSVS
With P203L, the “effect of a mutation on the interaction” value is “disrupting interaction strength”.

For the variant M25V, the “effect of a mutation on the interaction” value is reported as “with no effect”.

As for R30L, the “effect of a mutation on the interaction” value is “with no effect”.

Variants of B2 are the subject of a further experiment. Particulars: with aakb2_human PRKAB2, O43741.
Chain of aakb2_human PRKAB2, O43741 (O43741 whole entry): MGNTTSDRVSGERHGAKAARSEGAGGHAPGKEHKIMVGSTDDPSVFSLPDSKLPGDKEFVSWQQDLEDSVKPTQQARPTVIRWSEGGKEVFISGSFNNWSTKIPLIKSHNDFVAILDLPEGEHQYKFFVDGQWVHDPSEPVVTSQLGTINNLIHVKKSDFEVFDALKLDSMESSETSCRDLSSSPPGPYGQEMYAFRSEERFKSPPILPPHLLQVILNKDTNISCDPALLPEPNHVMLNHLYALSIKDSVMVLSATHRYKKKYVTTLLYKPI
Take P203L: the “effect of a mutation on the interaction” value is reported as “with no effect”.

Consider M25V, for which the “effect of a mutation on the interaction” value is listed as “with no effect”.

With R30L, the “effect of a mutation on the interaction” value is “with no effect”.

The next experiment covers variants of B2. Particulars: with blk_human BLK.
P203L: the “effect of a mutation on the interaction” value was “with no effect”.

With M25V, the “effect of a mutation on the interaction” value is “with no effect”.

For R30L, the “effect of a mutation on the interaction” value was “with no effect”.

Variants of B2 are the subject of a further experiment. To be noted: with ptk6_human PTK6, Q13882.
Consider S73N, for which the “effect of a mutation on the interaction” value is listed as “with no effect”.

The variants in a further experiment derive from B2. Particulars: with bccip_human BCCIP.
Take S73N: the “effect of a mutation on the interaction” value is reported as “with no effect”.

The variants in another experiment derive from B3. Particulars: with dbf4a_human DBF4, Q9UBU7.
As to I99T, the “effect of a mutation on the interaction” value was “with no effect”.

As for I99L, the “effect of a mutation on the interaction” value was “with no effect”.
